{"source": "paper PMC6760140", "about": "(2019)", "assay_in_all_cases": "BLI", "key": {"[1]": {"biological_target": "T1, Recombinant His-tagged Pfs25 (Plasmodium falciparum, UniProt P13829 17-196)"}, "[2]": {"biological_target": "T1, Recombinant His-tagged Pfs25", "remark": "listed apart in the source"}, "[3]": {"biological_target": "T1, Recombinant His-tagged Pfs25", "remark": "listed apart in the source"}}, "note": "Where two headings read alike, the source gives them in different places.", "data": [{"binder": "2587 Fab (Fab, V domains shown) VH: QVQLVQSGAEVRKPGASVKVSCKASGYSFTSYILNWVRQATGQGLEWMGWMNPDSNNTEYAQKFQGRVTITRDTSISTVYMELSGLRSEDTAVYYCARHSFKSNTGFDYWGQGTQVTVSS VL: SYELSQPPSVSVSAGQTASITCSGDKLGGKYGYWYQQRPGQSPILVIYQDSKRPSGIPERFSGSNSGNTATLTISGTQAMDEADYYCQAWDISTNWVFGGGTKLTVL", "values": [{"measurement": "Kd", "setting": "[1]", "value": 4.6, "unit": "nM"}, {"measurement": "koff", "setting": "[2]", "value": 0.0007, "unit": "s⁻¹"}]}, {"binder": "2530 Fab (Fab, V domains shown) VH: QVQLQESGPGLVKPSETLSLTCTVSGDSMSSYYWSWIRQPAGKGLEWIGRISTSGSTNYNPSLKSRVTMSVDTSNNHFSMRLNSVTAADTAVYYCACSGSYSFFDYWGQGTLVTVSS VL: not shown", "values": [{"measurement": "Kd", "setting": "[3]", "value": 19.2, "unit": "nM"}, {"measurement": "koff", "setting": "[2]", "value": 0.0062, "unit": "s⁻¹"}]}, {"binder": "2586 Fab (Fab, V domains shown) VH: EVHLVESGGGLVQPGGSLRLSCAASGFTFSDHYMDWVRQAPGKGLEWVGRIRNKANSYTTDYAASVKGRFTILRDDSKNSLYLQMNSLKTEDAAVYYCVRVGGLGERGDYYYYYMDVWGKGTTVTVSS VL: SYELTQPPSVSFSPGQTARITCSGDALSKQYTYWYQQKPGQAPVLVIYKDSERPSGIPERFSGSSSGTTVTLTISGVQAEDEADYYCQSADSSGPYQVLFGGGTKLTVL", "values": [{"measurement": "Kd", "setting": "[3]", "value": 2.5, "unit": "nM"}, {"measurement": "koff", "setting": "[2]", "value": 0.00037, "unit": "s⁻¹"}]}, {"binder": "2544 Fab (Fab, V domains shown) VH: EVQLVESGGGLVQPGGSLRLSCVASGFTFSNYNMNWVRQAPGKGLEWLSYISSSSGTIYYADSVKGRFTISRDNAKNSMYLQMNSLRAEDTAVYYCVRVEYYYGSSGYYYDFDSWGQGTLVTVSS VL: DIVMTQSPLSLPVTPGEPASISCRSSQSLLHNGYNYLDWYLQKPGQSPQLLIYLGSNRASGVPDRFSGSGSGTDFTLKISRVEAEDVGVYYCMQTLQPFTFGQGTRLEIK", "values": [{"measurement": "koff", "setting": "[2]", "value": 0.00075, "unit": "s⁻¹"}]}]}
